B1: Post-transcriptional regulator MTA (Human herpesvirus 8), Q2HR75 (parent)
chain: MVQAMIDMDIMKGILEDSVSSSEFDESRDDETDAPTLEDEQLSEPAEPPADERIRGTQSAQGIPPPLGRIPKKSQGRSQLRSEIQFCSPLSRPRSPSPVNRYGKKIKFGTAGQNTRPPPEKRPRRRPRDRLQYGRTTRGGQCRAAPKRATRRPQVNCQRQDDDVRQGVSDAVKKLRLPASMIIDGESPRFDDSIIPRHHGACFNVFIPAPPSHVPEVFTDRDITALIRAGGKDDELINKKISAKKIDHLHRQMLSFVTSRHNQAYWVSCRRETAAAGGLQTLGAFVEEQMTWAQTVVRHGGWFDEKDIDIILDTAIFVCNAFVTRFRLLHLSCVFDKQSELALIKQVAYLVAMGNRLVEACNLLGEVKLNFRGGLLLAFVLTIPGMQSRRSISARGQELFRTLLEYYRPGDVMGLLNVIVMEHHSLCRNSECAAATRAAMGSAKFNKGLFFYPLS

Variants of: B1
Conditions: with thoc4_human ALYREF

Row | Variant | effect of a mutation on the interaction
1 | MVQAMIDMDIMKGILEDSVSSSEFDESRDDETDAPTLEDEQLSEPAEPPADERIRGTQSAQGIPPPLGRIPKKSQGRSQLRSEIQFCSPLSRPRSPSPVNRYGKKIKFGTAGQNTRPPPEKRPQRRPRDRLQYGRTTRGGQCRAAPKRATRRPQVNCQRQDDDVRQGVSDAVKKLRLPASMIIDGESPRFDDSIIPRHHGACFNVFIPAPPSHVPEVFTDRDITALIRAGGKDDELINKKISAKKIDHLHRQMLSFVTSRHNQAYWVSCRRETAAAGGLQTLGAFVEEQMTWAQTVVRHGGWFDEKDIDIILDTAIFVCNAFVTRFRLLHLSCVFDKQSELALIKQVAYLVAMGNRLVEACNLLGEVKLNFRGGLLLAFVLTIPGMQSRRSISARGQELFRTLLEYYRPGDVMGLLNVIVMEHHSLCRNSECAAATRAAMGSAKFNKGLFFYPLS [R124Q] | disrupting interaction
2 | MVQAMIDMDIMKGILEDSVSSSEFDESRDDETDAPTLEDEQLSEPAEPPADERIRGTQSAQGIPPPLGRIPKKSQGRSQLRSEIQFCSPLSRPRSPSPVNRYGKKIKFGTAGQNTRPPPEKRPRRRPRDGLQYGRTTRGGQCRAAPKRATRRPQVNCQRQDDDVRQGVSDAVKKLRLPASMIIDGESPRFDDSIIPRHHGACFNVFIPAPPSHVPEVFTDRDITALIRAGGKDDELINKKISAKKIDHLHRQMLSFVTSRHNQAYWVSCRRETAAAGGLQTLGAFVEEQMTWAQTVVRHGGWFDEKDIDIILDTAIFVCNAFVTRFRLLHLSCVFDKQSELALIKQVAYLVAMGNRLVEACNLLGEVKLNFRGGLLLAFVLTIPGMQSRRSISARGQELFRTLLEYYRPGDVMGLLNVIVMEHHSLCRNSECAAATRAAMGSAKFNKGLFFYPLS [R130G] | disrupting interaction
3 | MVQAMIDMDIMKGILEDSVSSSEFDESRDDETDAPTLEDEQLSEPAEPPADERIRGTQSAQGIPPPLGRIPKKSQGRSQLRSEIQFCSPLSRPRSPSPVNRYGKKIKFGTAGQNTRPPPEKRPRRRPRDRLQYGRTTRGGQCDAAPKRATRRPQVNCQRQDDDVRQGVSDAVKKLRLPASMIIDGESPRFDDSIIPRHHGACFNVFIPAPPSHVPEVFTDRDITALIRAGGKDDELINKKISAKKIDHLHRQMLSFVTSRHNQAYWVSCRRETAAAGGLQTLGAFVEEQMTWAQTVVRHGGWFDEKDIDIILDTAIFVCNAFVTRFRLLHLSCVFDKQSELALIKQVAYLVAMGNRLVEACNLLGEVKLNFRGGLLLAFVLTIPGMQSRRSISARGQELFRTLLEYYRPGDVMGLLNVIVMEHHSLCRNSECAAATRAAMGSAKFNKGLFFYPLS [R143D] | disrupting interaction
4 | MVQAMIDMDIMKGILEDSVSSSEFDESRDDETDAPTLEDEQLSEPAEPPADERIRGTQSAQGIPPPLGRIPKKSQGRSQLRSEIQFCSPLSRPRSPSPVNRYGKKIKFGTAGQNTRPPPEKRPRRRPRDRLQYGRTTRGGQCRAAPKRATDRPQVNCQRQDDDVRQGVSDAVKKLRLPASMIIDGESPRFDDSIIPRHHGACFNVFIPAPPSHVPEVFTDRDITALIRAGGKDDELINKKISAKKIDHLHRQMLSFVTSRHNQAYWVSCRRETAAAGGLQTLGAFVEEQMTWAQTVVRHGGWFDEKDIDIILDTAIFVCNAFVTRFRLLHLSCVFDKQSELALIKQVAYLVAMGNRLVEACNLLGEVKLNFRGGLLLAFVLTIPGMQSRRSISARGQELFRTLLEYYRPGDVMGLLNVIVMEHHSLCRNSECAAATRAAMGSAKFNKGLFFYPLS [R151D] | disrupting interaction
5 | MVQAMIDMDIMKGILEDSVSSSEFDESRDDETDAPTLEDEQLSEPAEPPADERIRGTQSAQGIPPPLGRIPKKSQGRSQLRSEIQFCSPLSRPRSPSPVNRYGKKIKFGTAGQNTRPPPEKRPRREPRDRLQYGRTTRGGQCRAAPKRATRRPQVNCQRQDDDVRQGVSDAVKKLRLPASMIIDGESPRFDDSIIPRHHGACFNVFIPAPPSHVPEVFTDRDITALIRAGGKDDELINKKISAKKIDHLHRQMLSFVTSRHNQAYWVSCRRETAAAGGLQTLGAFVEEQMTWAQTVVRHGGWFDEKDIDIILDTAIFVCNAFVTRFRLLHLSCVFDKQSELALIKQVAYLVAMGNRLVEACNLLGEVKLNFRGGLLLAFVLTIPGMQSRRSISARGQELFRTLLEYYRPGDVMGLLNVIVMEHHSLCRNSECAAATRAAMGSAKFNKGLFFYPLS [R126E] | disrupting interaction
6 | MVQAMIDMDIMKGILEDSVSSSEFDESRDDETDAPTLEDEQLSEPAEPPADERIRGTQSAQGIPPPLGRIPKKSQGRSQLRSEIQFCSPLSRPRSPSPVNRYGKKIKFGTAGQNTRPPPEKRPRGRPRDRLQYGRTTRGGQCRAAPKRATRRPQVNCQRQDDDVRQGVSDAVKKLRLPASMIIDGESPRFDDSIIPRHHGACFNVFIPAPPSHVPEVFTDRDITALIRAGGKDDELINKKISAKKIDHLHRQMLSFVTSRHNQAYWVSCRRETAAAGGLQTLGAFVEEQMTWAQTVVRHGGWFDEKDIDIILDTAIFVCNAFVTRFRLLHLSCVFDKQSELALIKQVAYLVAMGNRLVEACNLLGEVKLNFRGGLLLAFVLTIPGMQSRRSISARGQELFRTLLEYYRPGDVMGLLNVIVMEHHSLCRNSECAAATRAAMGSAKFNKGLFFYPLS [R125G] | disrupting interaction
7 | MVQAMIDMDIMKGILEDSVSSSEFDESRDDETDAPTLEDEQLSEPAEPPADERIRGTQSAQGIPPPLGRIPKKSQGRSQLRSEIQFCSPLSRPRSPSPVNRYGKKIKFGTAGQNTRPPPEKRPRRRPRDRLQYGRTTRGGQCRAAPKQATRRPQVNCQRQDDDVRQGVSDAVKKLRLPASMIIDGESPRFDDSIIPRHHGACFNVFIPAPPSHVPEVFTDRDITALIRAGGKDDELINKKISAKKIDHLHRQMLSFVTSRHNQAYWVSCRRETAAAGGLQTLGAFVEEQMTWAQTVVRHGGWFDEKDIDIILDTAIFVCNAFVTRFRLLHLSCVFDKQSELALIKQVAYLVAMGNRLVEACNLLGEVKLNFRGGLLLAFVLTIPGMQSRRSISARGQELFRTLLEYYRPGDVMGLLNVIVMEHHSLCRNSECAAATRAAMGSAKFNKGLFFYPLS [R148Q] | disrupting interaction
8 | MVQAMIDMDIMKGILEDSVSSSEFDESRDDETDAPTLEDEQLSEPAEPPADERIRGTQSAQGIPPPLGRIPKKSQGRSQLRSEIQFCSPLSRPRSPSPVNRYGKKIKFGTAGQNTRPPPEKRPRRRPRDRLQYGRTTRGGQCRAAPERATRRPQVNCQRQDDDVRQGVSDAVKKLRLPASMIIDGESPRFDDSIIPRHHGACFNVFIPAPPSHVPEVFTDRDITALIRAGGKDDELINKKISAKKIDHLHRQMLSFVTSRHNQAYWVSCRRETAAAGGLQTLGAFVEEQMTWAQTVVRHGGWFDEKDIDIILDTAIFVCNAFVTRFRLLHLSCVFDKQSELALIKQVAYLVAMGNRLVEACNLLGEVKLNFRGGLLLAFVLTIPGMQSRRSISARGQELFRTLLEYYRPGDVMGLLNVIVMEHHSLCRNSECAAATRAAMGSAKFNKGLFFYPLS [K147E] | disrupting interaction
9 | MVQAMIDMDIMKGILEDSVSSSEFDESRDDETDAPTLEDEQLSEPAEPPADERIRGTQSAQGIPPPLGRIPKKSQGRSQLRSEIQFCSPLSRPRSPSPVNRYGKKIKFGTAGQNTRPPPEKRPRRRPSDRLQYGRTTRGGQCRAAPKRATRRPQVNCQRQDDDVRQGVSDAVKKLRLPASMIIDGESPRFDDSIIPRHHGACFNVFIPAPPSHVPEVFTDRDITALIRAGGKDDELINKKISAKKIDHLHRQMLSFVTSRHNQAYWVSCRRETAAAGGLQTLGAFVEEQMTWAQTVVRHGGWFDEKDIDIILDTAIFVCNAFVTRFRLLHLSCVFDKQSELALIKQVAYLVAMGNRLVEACNLLGEVKLNFRGGLLLAFVLTIPGMQSRRSISARGQELFRTLLEYYRPGDVMGLLNVIVMEHHSLCRNSECAAATRAAMGSAKFNKGLFFYPLS [R128S] | disrupting interaction
10 | MVQAMIDMDIMKGILEDSVSSSEFDESRDDETDAPTLEDEQLSEPAEPPADERIRGTQSAQGIPPPLGRIPKKSQGRSQLRSEIQFCSPLSRPRSPSPVNRYGKKIKFGTAGQNTRPPPEKSPRRRPRDRLQYGRTTRGGQCRAAPKRATRRPQVNCQRQDDDVRQGVSDAVKKLRLPASMIIDGESPRFDDSIIPRHHGACFNVFIPAPPSHVPEVFTDRDITALIRAGGKDDELINKKISAKKIDHLHRQMLSFVTSRHNQAYWVSCRRETAAAGGLQTLGAFVEEQMTWAQTVVRHGGWFDEKDIDIILDTAIFVCNAFVTRFRLLHLSCVFDKQSELALIKQVAYLVAMGNRLVEACNLLGEVKLNFRGGLLLAFVLTIPGMQSRRSISARGQELFRTLLEYYRPGDVMGLLNVIVMEHHSLCRNSECAAATRAAMGSAKFNKGLFFYPLS [R122S] | disrupting interaction
11 | MVQAMIDMDIMKGILEDSVSSSEFDESRDDETDAPTLEDEQLSEPAEPPADERIRGTQSAQGIPPPLGRIPKKSQGRSQLRSEIQFCSPLSRPRSPSPVNRYGKKIKFGTAGQNTRPPPEMRPRRRPRDRLQYGRTTRGGQCRAAPKRATRRPQVNCQRQDDDVRQGVSDAVKKLRLPASMIIDGESPRFDDSIIPRHHGACFNVFIPAPPSHVPEVFTDRDITALIRAGGKDDELINKKISAKKIDHLHRQMLSFVTSRHNQAYWVSCRRETAAAGGLQTLGAFVEEQMTWAQTVVRHGGWFDEKDIDIILDTAIFVCNAFVTRFRLLHLSCVFDKQSELALIKQVAYLVAMGNRLVEACNLLGEVKLNFRGGLLLAFVLTIPGMQSRRSISARGQELFRTLLEYYRPGDVMGLLNVIVMEHHSLCRNSECAAATRAAMGSAKFNKGLFFYPLS [K121M] | disrupting interaction
12 | MVQAMIDMDIMKGILEDSVSSSEFDESRDDETDAPTLEDEQLSEPAEPPADERIRGTQSAQGIPPPLGRIPKKSQGRSQLRSEIQFCSPLSRPRSPSPVNRYGKKIKFGTAGQNTRPPPEKRPRRRPRDRLQYGRTTRGGQCRAAPKRATRGPQVNCQRQDDDVRQGVSDAVKKLRLPASMIIDGESPRFDDSIIPRHHGACFNVFIPAPPSHVPEVFTDRDITALIRAGGKDDELINKKISAKKIDHLHRQMLSFVTSRHNQAYWVSCRRETAAAGGLQTLGAFVEEQMTWAQTVVRHGGWFDEKDIDIILDTAIFVCNAFVTRFRLLHLSCVFDKQSELALIKQVAYLVAMGNRLVEACNLLGEVKLNFRGGLLLAFVLTIPGMQSRRSISARGQELFRTLLEYYRPGDVMGLLNVIVMEHHSLCRNSECAAATRAAMGSAKFNKGLFFYPLS [R152G] | disrupting interaction

Variants of: B1
Conditions: with thoc4_human ALYREF
Remark: another data set of the same source

Row | Variant | effect of a mutation on the interaction
13 | MVQAMIDMDIMKGILEDSVSSSEFDESRDDETDAPTLEDEQLSEPAEPPADERIRGTQSAQGIPPPLGRIPKKSQGRSQLRSEIQFCSPLSRPRSPSPVNSYGKKIKFGTAGQNTRPPPEKRPRRRPRDRLQYGRTTRGGQCRAAPKRATRRPQVNCQRQDDDVRQGVSDAVKKLRLPASMIIDGESPRFDDSIIPRHHGACFNVFIPAPPSHVPEVFTDRDITALIRAGGKDDELINKKISAKKIDHLHRQMLSFVTSRHNQAYWVSCRRETAAAGGLQTLGAFVEEQMTWAQTVVRHGGWFDEKDIDIILDTAIFVCNAFVTRFRLLHLSCVFDKQSELALIKQVAYLVAMGNRLVEACNLLGEVKLNFRGGLLLAFVLTIPGMQSRRSISARGQELFRTLLEYYRPGDVMGLLNVIVMEHHSLCRNSECAAATRAAMGSAKFNKGLFFYPLS [R101S] | disrupting interaction
